Assay [1] addresses recombinant cynomolgus monkey TSLP (Pfizer) (cynomolgus monkey, UniProt A0A7N9CAT7 29-159). Kind of assay: cell-based or functional assay.
In assay [2] the target is T1, biotinylated human TSLP (Pfizer) (human, UniProt Q969D9 29-159, biotinylated (Avi tag by Example 2)).
T1 construct: Antigen of the KinExA fixed antigen assay
Kind of assay: KinExA, fixed antigen format, solution affinity, mean. In general terms: In KinExA the mixture passes briefly over coated beads that capture the unbound partner.
Description: (§1) Samples were prepared in PBS containing 0.1% sodium azide and 1.0 mg/ml BSA. A fixed antigen assay method was used to determine binding affinity. […] Data analysis was performed with the KinExA Pro software version 4.3.11 (Sapidyne). […] The ‘drift correction’ option was selected when responses varied between replicate injections. Two curves were obtained in independent experiments and analyzed using the ‘n-curve analysis’ tool to obtain global best fit values for the KD and active concentration of biotinylated TSLP. The software reports each best fit value along with a 95% confidence interval).

Assay [3] concerns the target T2, biotinylated cynomolgus monkey TSLP (Pfizer) (cynomolgus monkey, UniProt A0A7N9CAT7 29-159, biotinylated (Avi tag by Example 2)).
T2 construct: Antigen of the KinExA fixed antigen assay
The description is as above.
Description: as §1

Assay [4] deals with T3, recombinant cynomolgus monkey IL-12 (p35+p40) (cynomolgus monkey, UniProt A0A2K5V4L8 57-253; G7P6S2 23-328).
T3 construct: also called Cyno IL-12
T3 sequence (p35): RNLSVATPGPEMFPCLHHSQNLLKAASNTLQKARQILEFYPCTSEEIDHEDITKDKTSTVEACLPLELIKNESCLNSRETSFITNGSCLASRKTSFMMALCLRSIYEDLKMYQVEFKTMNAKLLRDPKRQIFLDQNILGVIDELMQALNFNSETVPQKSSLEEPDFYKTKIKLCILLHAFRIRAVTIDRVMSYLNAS
T3 sequence (p40): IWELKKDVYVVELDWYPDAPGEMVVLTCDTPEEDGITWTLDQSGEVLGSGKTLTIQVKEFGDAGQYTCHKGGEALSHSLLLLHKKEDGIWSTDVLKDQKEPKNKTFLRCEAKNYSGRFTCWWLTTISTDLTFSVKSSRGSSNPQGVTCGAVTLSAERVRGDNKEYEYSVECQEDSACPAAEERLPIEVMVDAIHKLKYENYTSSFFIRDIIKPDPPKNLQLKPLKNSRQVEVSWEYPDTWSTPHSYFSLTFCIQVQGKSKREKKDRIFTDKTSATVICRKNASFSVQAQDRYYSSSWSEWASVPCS
The assay is described as follows: SPR (Biacore T200, 37 C), antibody captured by anti-human Fc, cytokine injected.
Description: (§2) For these analyses, kinetic assays were conducted at 37° C. at a collection rate of 10 Hz on a BIAcore™ T200 instrument (GE Healthcare).

The target in assay [5] is T4, recombinant human IL-23 (p19+p40) (human, UniProt Q9NPF7 20-189; P29460 23-328).
T4 sequence (looked up) 1: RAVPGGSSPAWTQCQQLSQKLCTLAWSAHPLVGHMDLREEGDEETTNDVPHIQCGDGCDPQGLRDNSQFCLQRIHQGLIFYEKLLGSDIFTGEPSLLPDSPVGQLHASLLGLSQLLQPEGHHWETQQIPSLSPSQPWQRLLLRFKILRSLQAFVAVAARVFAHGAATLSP
T4 sequence (looked up) 2: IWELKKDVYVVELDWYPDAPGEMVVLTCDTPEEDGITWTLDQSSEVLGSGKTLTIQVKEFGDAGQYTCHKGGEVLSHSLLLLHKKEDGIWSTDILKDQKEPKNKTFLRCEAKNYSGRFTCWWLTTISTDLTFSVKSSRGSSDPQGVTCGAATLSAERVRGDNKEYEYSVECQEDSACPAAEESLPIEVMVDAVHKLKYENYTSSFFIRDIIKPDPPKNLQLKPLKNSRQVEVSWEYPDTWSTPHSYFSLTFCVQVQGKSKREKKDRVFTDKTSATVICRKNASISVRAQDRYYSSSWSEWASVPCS
The description is as above.
Description: as §2

For assay [6], the target named is T5, recombinant cynomolgus monkey IL-23 (p19+p40) (cynomolgus monkey, UniProt H6WS56 20-189; G7P6S2 23-328).
T5 construct: also called Cyno IL-23
T5 sequence (p19): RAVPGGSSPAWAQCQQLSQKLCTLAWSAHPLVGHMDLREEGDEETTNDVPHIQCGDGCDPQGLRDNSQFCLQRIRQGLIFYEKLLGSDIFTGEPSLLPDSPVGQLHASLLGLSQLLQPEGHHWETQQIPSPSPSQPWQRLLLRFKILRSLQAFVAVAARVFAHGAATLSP
T5 sequence (p40): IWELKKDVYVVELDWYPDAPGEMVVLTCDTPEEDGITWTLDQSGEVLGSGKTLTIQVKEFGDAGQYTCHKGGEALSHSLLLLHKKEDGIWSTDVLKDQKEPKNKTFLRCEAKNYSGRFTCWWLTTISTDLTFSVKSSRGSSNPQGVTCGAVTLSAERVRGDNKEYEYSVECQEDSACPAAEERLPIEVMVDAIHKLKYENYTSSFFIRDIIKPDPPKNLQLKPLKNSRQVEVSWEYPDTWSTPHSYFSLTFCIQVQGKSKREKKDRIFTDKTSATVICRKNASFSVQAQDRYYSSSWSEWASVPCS
The assay is described as above.
Description: as §2

For assay [7], the target named is T6, recombinant human IL-12 (p35+p40) (human, UniProt P29459 23-219; P29460 23-328).
T6 sequence (looked up) 1: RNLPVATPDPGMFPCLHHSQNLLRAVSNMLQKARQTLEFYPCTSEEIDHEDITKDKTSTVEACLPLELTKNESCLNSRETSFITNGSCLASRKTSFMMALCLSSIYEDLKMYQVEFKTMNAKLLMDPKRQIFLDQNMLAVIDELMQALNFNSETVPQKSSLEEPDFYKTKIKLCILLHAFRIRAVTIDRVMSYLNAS
T6 sequence (looked up) 2: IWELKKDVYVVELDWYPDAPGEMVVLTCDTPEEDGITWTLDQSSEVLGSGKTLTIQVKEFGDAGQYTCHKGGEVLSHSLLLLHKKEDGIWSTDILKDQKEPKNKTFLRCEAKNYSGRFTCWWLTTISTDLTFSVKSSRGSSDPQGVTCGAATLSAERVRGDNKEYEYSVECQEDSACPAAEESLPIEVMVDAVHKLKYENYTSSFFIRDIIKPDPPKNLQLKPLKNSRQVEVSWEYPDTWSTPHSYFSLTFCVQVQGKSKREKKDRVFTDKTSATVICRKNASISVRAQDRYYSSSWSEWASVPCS
The description is as above.
Description: as §2

The text below walks through data of patent publication US20240117030A1 (Pfizer, published 2024).

recombinant cynomolgus monkey TSLP (Pfizer), sequence (A0A7N9CAT7 entry or part of it): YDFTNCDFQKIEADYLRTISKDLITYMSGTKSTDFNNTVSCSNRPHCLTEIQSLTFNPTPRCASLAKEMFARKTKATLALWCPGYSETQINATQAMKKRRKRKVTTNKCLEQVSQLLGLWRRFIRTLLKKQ
T2 sequence (A0A7N9CAT7 entry or part of it): as above

B1: IL413TSLP-1024 (antibody)
heavy: not shown
light 1: SYVLTQPPSVSVAPGQTARITCGGNNLGSKSVHWYQQKPGQAPVLVVYDDKDRPSWIPERFSGSNSGNTATLTISRGEAGDEADYYCQVWDSKSDHVVFGGGTKLTVLGQPKAAPSVTLFPPSSEELQANKATLVCLISDFYPGAVTVAWKADSSPVKAGVETTTPSKQSNNKYAASSYLSLTPEQWKSHRSYSCQVTHEGSTVEKTVAPTECS
chain 1: DIQMTQSPSSLSASVGDRVTITCKASESVDHFGWSLVHWYQQKPGKAPKLLIYRASNLESGVPSRFSGSGSGTDFTLTISSLQPEDFATYYCQQSNEDPWTFGGGTKVEIKRTVAAPSVFIFPPSDEQLKSGTASVVCLLNNFYPREAKVQWKVDNALQSGNSQESVTEQDSKDSTYSLSSTLTLSKADYEKHKVYACEVTHQGLSSPVTKSFNRGECGGGGSEVTLRESGPALVKPTQTLTLTCTFSGFSLSNFGEGLSWIRQPPGKGLEWLAHIYWDDDKRYNPSLKSRLTISKDTSRNQVVLTMTNMDPVDTATYYCARRETVFYWYFDVWGQGTTVTVSSASTKGPSVFPLAPSSKSTSGGTAALGCLVKDYFPEPVTVSWNSGALTSGVHTFPAVLQSSGLYSLSSVVTVPSSSLGTQTYICNVNHKPSNTKVDKKVEPKSCEKTHTCPPCPAPEAAGAPSVFLFPPKPKDTLMISRTPEVTCVVVDVSHEDPEVKFNWYVDGVEVHNAKTKPREEQYNSTYRVVSVLTVLHQDWLNGKEYKCKVSNKALPAPIEKTISKAKGQPREPQVYTLPPSREEMTKNQVSLTCEVKGFYPSDIAVEWESNGQPENNYKTTPPVLDSDGSFFLYSKLTVDKSRWQQGNVFSCSVLHEALHSHYTQKSLSLSPGK
light 2: DIQMTQSPSSLSASVGDRVTITCRASQSVDEEGDSYMNWYQQKPGKAPKLLIYAASNLESGVPSRFSGSGSGTDFTLTISSLQPEDFATYYCQQSNKDPPTFGGGTKVEIKRTVAAPSVFIFPPSDEQLKSGTASVVCLLNNFYPREAKVQWKVDNALQSGNSQESVTEQDSKDSTYSLSSTLTLSKADYEKHKVYACEVTHQGLSSPVTKSFNRGEC
chain 2: EVQLVESGGGLVQPGGSLRLSCAASGFTFSSYAMSWVRQAPGKGLEWVASISSGDTTYYPDSVKGRFTISRDNAKNSLYLQMNSLRAEDTAVYYCARNEGYYFGLTLWGQGTLVTVSSASTKGPSVFPLAPSSKSTSGGTAALGCLVKDYFPEPVTVSWNSGALTSGVHTFPAVLQSSGLYSLSSVVTVPSSSLGTQTYICNVNHKPSNTKVDKKVEPKSC
notes: RR-EE, LS; monovalent for TSLP
Usually Kd stands for the free concentration of one partner at which half of the binding sites on the other are occupied at equilibrium, for simple one-to-one binding. Consider B1, for which, in assay [1], the “IC50, TARC production bioassay, Human Whole Blood (median)” value was 0.0327 nM and the “IC50, TARC production bioassay, Peripheral Blood Monocytes (median)” value was 0.03 nM. For the same molecule, the Kd in assay [2] came out at 0.00303 nM. In addition, binding in assay [3] was put at a Kd of 0.00631 nM.

B2: p40-0003 (antibody, human IgG1, kappa, V domains shown)
VH: EVQLVQSGAEVKKPGESLKISCKGSGYSFTTYWLGWVRQMPGKGLDWIGIMSPVDSDIRYSPSFQGQVTMSVDKSITTAYLQWNSLKASDTAMYYCARRRPGQGYFDFWGQGTLVTVSS
VL: DIQMTQSPSSLSASVGDRVTITCRASQGISSWLAWYQQKPEKAPKSLIYAASSLQSGVPSRFSGSGSGTDFTLTISSLQPEDFATYYCQQYNIYPYTFGQGTKLEIKR
notes: also called p40 mAb; ustekinumab (C230) variable regions on human IgG1 effector-null
As to B2, the Kd in assay [4] amounted to 0.368 nM; in assay [5], 0.16 nM; in assay [6], 0.317 nM; in assay [7], 0.156 nM.
